Paper PMC9780223

Molecular target: purified recombinant PAPP-A free of STC2 (apo PAPP-A) (human) (UniProt Q13219)
Assay: MST

Row | Kd [µM] | Substance
1 | 27.5 | 4P2, peptide from the linker region of IGFBP4 (from UniProt P22692)
2 | 4.43 | 5P1, peptide from the linker region of IGFBP5 (from UniProt P24593)
3 | 38 | 5P3, peptide from the linker region of IGFBP5 (from UniProt P24593)

The remaining lines, values behind:

Row | Substance | Kd [µM]
4 | 4P1, peptide from the linker region of IGFBP4 (from UniProt P22692) | 1.73
5 | 4P3, peptide from the linker region of IGFBP4 (from UniProt P22692) | 162
6 | 5P2, peptide from the linker region of IGFBP5 (from UniProt P24593) | 17.3
